T1: PRAME (PRAME-004) peptide on HLA-A*02:01 (human)
T1 peptide: SLLQHLIGL


Biological target: T1, PRAME (PRAME-004) peptide on HLA-A*02:01
Experiment: cytokine release

| binding result | Binder |
| --- | --- |
| recognises | R17P1D7 (TCR, V domains shown) Valpha: AQTVTQSQPEMSVQEAETVTLSCTYDTSESDYYLFWYKQPPSRQMILVIRQEAYKQQNATENRFSVNFQKAAKSFSLKISDSQLGDAAMYFCAYRWAQGGSEKLVFGKGTKLTVNP Vbeta: EADIYQTPRYLVIGTGKKITLECSQTMGHDKMYWYQQDPGMELHLIHYSYGVNSTEKGDLSSESTVSRIRTEHFPLTLESARPSHTSQYLCATELWSSGGTGELFFGEGSRLTVL |
| recognises | R17P1A9 (TCR, V domains shown) Valpha: QKEVEQNSGPLSVPEGAIASLNCTYSDRGSQSFFWYRQYSGKSPELIMSIYSNGDKEDGRFTAQLNKASQYVSLLIRDSQPSDSATYLCAVLNQAGTALIFGKGTTLSVSS Vbeta: DSGVTQTPKHLITATGQRVTLRCSPRSGDLSVYWYQQSLDQGLQFLIQYYNGEERAKGNILERFSAQQFPDLHSELNLSSLELGDSALYFCASSAETGPWLGNEQFFGPGTRLTVL |
| recognises | R16P1E8 (TCR, V domains shown) Valpha: QKEVEQDPGPLSVPEGAIVSLNCTYSNSAFQYFMWYRQYSRKGPELLMYTYSSGNKEDGRFTAQVDKSSKYISLFIRDSQPSDSATYLCAMSEAAGNKLTFGGGTRVLVKP Vbeta: EAGVAQSPRYKIIEKRQSVAFWCNPISGHATLYWYQQILGQGPKLLIQFQNNGVVDDSQLPKDRFSAERLKGVDSTLKIQPAKLEDSAVYLCASSYTNQGEAFFGQGTRLTVV |
